Each block holds one substance with its values, some of them ahead of it.
Tests used:
[1] = biological target: Recombinant His-tagged human apolipoprotein A-IV, apoA-IV^T347S (human) (UniProt P06727); assay: BLI
[2] = biological target: Recombinant human apolipoprotein A-IV, apoA-IV^T347S, His tag-free (human) (UniProt P06727); assay: ITC
[3] = biological target: Recombinant human apolipoprotein A-IV, apoA-IV^WT, His tag-free (human) (UniProt P06727); assay: ITC

Kd [1]: 0.397 µM
Substance: Human platelet integrin αIIbβ3 (from UniProt P05106 27-788) (receptor)

Kd [2]: 102 µM
dH [2]: -34 kcal/mol
Substance: Recombinant human apolipoprotein A-IV, apoA-IV^T347S, His tag-free (from UniProt P06727 21-396) (natural protein)

Kd1 [3]: 0.63 µM
Kd2 [3]: 54 nM
dH1 [3]: 2.7 kcal/mol
dH2 [3]: -27 kcal/mol
Substance: Recombinant human apolipoprotein A-IV, apoA-IV^WT, His tag-free (from UniProt P06727 21-396) (natural protein)

Source: publication PMC12017984
